Source: US20240124560A1

How the values were obtained:
full-length MPER peptide = test: ELISA on peptide MPER (654-683), antibody titrated
4E10-specific peptide = test: ELISA on peptide MPER (671-683), antibody titrated
[1] = molecular target: HIV-1 Env of isolate COT6, mutant D674E (HIV-1); test: cell-based or functional assay
[2] = molecular target: HIV-1 Env of NAC_WITO.33 (HIV-1); test: cell-based or functional assay
[3] = molecular target: HIV-1 Env of NIH-066_191084 B7.19 (HIV-1); test: cell-based or functional assay
[4] = molecular target: HIV-1 Env of pseudovirus NIH-089_3016.v5.c45 (clade D) (HIV-1); test: cell-based or functional assay
[5] = molecular target: HIV-2 C3 chimera Env (HIV-2 (HIV-1 MPER) chimera); test: cell-based or functional assay
[6] = molecular target: HIV-2 Env (parental virus of the chimeras) (HIV-2); test: cell-based or functional assay
[7] = molecular target: HIV-1 Env of NAC_KNH1144 (HIV-1); test: cell-based or functional assay
[8] = molecular target: HIV-1 Env of pseudovirus NAC_JRFL (HIV-1); test: cell-based or functional assay
[9] = molecular target: HIV-1 Env of pseudovirus NIH-106_T250.4 (HIV-1); test: cell-based or functional assay
[10] = molecular target: HIV-1 Env of isolate COT6 (wild-type) (HIV-1); test: cell-based or functional assay
[11] = molecular target: HIV-1 Env of NIH-014_6244.13.B5.4567 (HIV-1); test: cell-based or functional assay
[12] = molecular target: HIV-1 Env of pseudovirus NIH-090_A07412M1.vrc12 (clade D) (HIV-1); test: cell-based or functional assay
[13] = molecular target: HIV-1 Env of NIH-044_ZM247F.F7 (HIV-1); test: cell-based or functional assay
[14] = molecular target: HIV-1 Env of pseudovirus NIH-044_ZM247F.F7 (HIV-1); test: cell-based or functional assay
[15] = molecular target: HIV-1 Env of isolate COT6, mutant D674S (HIV-1); test: cell-based or functional assay
[16] = molecular target: HIV-1 Du156.12 Env (HIV-1 Du156.12); test: cell-based or functional assay
[17] = molecular target: HIV-1 Env of pseudovirus NIH-077_BJOX009000.02.4 (HIV-1); test: cell-based or functional assay
[18] = molecular target: HIV-1 Env of NIH-023_ZM249M.PL1 (HIV-1); test: cell-based or functional assay
[19] = molecular target: HIV-1 Env of NIH-114_T257.31 (HIV-1); test: cell-based or functional assay
[20] = molecular target: HIV-1 Env of pseudovirus NAC_BaL.26 (HIV-1); test: cell-based or functional assay
[21] = molecular target: HIV-1 Env of NIH-058_Q23ENV17 (HIV-1); test: cell-based or functional assay
[22] = molecular target: HIV-2 C4 chimera Env (HIV-2 (HIV-1 MPER) chimera); test: cell-based or functional assay
[23] = molecular target: HIV-1 Env of NIH-010_1054.07.TC4.1499 (HIV-1); test: cell-based or functional assay
[24] = molecular target: HIV-1 Env of isolate COT6, mutant D674T (HIV-1); test: cell-based or functional assay
[25] = molecular target: HIV-1 Env of NIH-081_BJOX028000.10.3 (HIV-1); test: cell-based or functional assay
[26] = molecular target: HIV-2 C1 chimera Env (HIV-2 (HIV-1 MPER) chimera); test: cell-based or functional assay
[27] = molecular target: HIV-1 Env of NIH-108_T235.47 (HIV-1); test: cell-based or functional assay
[28] = molecular target: HIV-1 Env of pseudovirus NIH-054_CNE53 (HIV-1); test: cell-based or functional assay
[29] = molecular target: HIV-1 Env of isolate NIH-084_X1254 c3 (HIV-1); test: cell-based or functional assay
[30] = molecular target: HIV-1 Env of pseudovirus NAC_SF162 (HIV-1); test: cell-based or functional assay
[31] = molecular target: HIV-1 Env of NIH-059_Q461ENVe2 (HIV-1); test: cell-based or functional assay
[32] = molecular target: HIV-1 Env of pseudovirus NIH-101_6540.v4.c1 (HIV-1); test: cell-based or functional assay
[33] = molecular target: HIV-1 Env of NIH-034_Ce0393 C3 (HIV-1); test: cell-based or functional assay
[34] = molecular target: HIV-1 Env of pseudovirus NIH-083_P0402 c2 11 (clade G) (HIV-1); test: cell-based or functional assay
[35] = molecular target: HIV-1 Env of pseudovirus NIH-108_T235.47 (HIV-1); test: cell-based or functional assay
[36] = molecular target: HIV-1 Env of NAC_BaL.26 (HIV-1); test: cell-based or functional assay
[37] = molecular target: HIV-1 Env of pseudovirus NIH-011_1056.10.TA11.1826 (HIV-1); test: cell-based or functional assay
[38] = molecular target: HIV-1 Env of pseudovirus NIH-087_P1981 C5 3 (clade G) (HIV-1); test: cell-based or functional assay
[39] = molecular target: HIV-1 Env of NIH-116_T263.8 (HIV-1); test: cell-based or functional assay
[40] = molecular target: HIV-1 Env of pseudovirus NIH-061_Q259ENVd2.17 (HIV-1); test: cell-based or functional assay
[41] = molecular target: HIV-1 Env of pseudovirus NIH-006_AC10.0.29 (HIV-1); test: cell-based or functional assay
[42] = molecular target: HIV-1 Env of pseudovirus NIH-012_1012.11.TC21.3257 (HIV-1); test: cell-based or functional assay
[43] = molecular target: HIV-1 Env of NIH-005_TRO.11 (HIV-1); test: cell-based or functional assay
[44] = molecular target: HIV-1 Env of isolate Du156.12 (HIV-1); test: cell-based or functional assay

## 4E10 (antibody)
full-length MPER peptide
  EC50 (read off the curve): 0.03 µg/mL
4E10-specific peptide
  EC50 (read off the curve): 0.02 µg/mL
[1]
  Fold increase in IC50 relative to wild-type COT6: 10 fold
[2]
  IC80 neutralization: 1.82 µg/mL
[3]
  IC80 neutralization: 9.04 µg/mL
[4]
  IC50 (µg/ml), TZM-bl cell neutralization assay, pseudovirus: 0.915 µg/mL
[5]
  IC50 (µg/ml), neutralization of chimeric virus: > 10 µg/mL
[6]
  IC50 (µg/ml), neutralization of HIV-2: > 10 µg/mL
[7]
  IC80 neutralization: 47.9 µg/mL
[8]
  neutralization IC50: 17.8 µg/mL
[9]
  neutralization IC50: 0.756 µg/mL
[10]
  Fold increase in IC50 (wild-type COT6, the reference): 1 fold
[11]
  IC80 neutralization: 0.373 µg/mL
[12]
  IC50 (µg/ml), TZM-bl cell neutralization assay, pseudovirus: 2.58 µg/mL
[13]
  IC80 neutralization: 7.5 µg/mL
[14]
  neutralization IC50: 1.85 µg/mL
[15]
  Fold increase in IC50 relative to wild-type COT6: 1.65 fold
[16]
  IC50 (µg/ml), neutralization of HIV-1 Du156.12: 0.101 µg/mL
[17]
  neutralization IC50: 0.389 µg/mL
[18]
  IC80 neutralization: 5.77 µg/mL
[19]
  IC80 neutralization: 4.71 µg/mL
[20]
  neutralization IC50: 4.2 µg/mL
[21]
  IC80 neutralization: 5.37 µg/mL
[22]
  IC50 (µg/ml), neutralization of chimeric virus: 1.41 µg/mL
[23]
  IC80 neutralization: 5.43 µg/mL
[24]
  Fold increase in IC50 relative to wild-type COT6: 25 fold
[25]
  IC80 neutralization: 1.88 µg/mL
[26]
  IC50 (µg/ml), neutralization of chimeric virus: 0.8 µg/mL
[27]
  IC80 neutralization: 1.07 µg/mL
[28]
  neutralization IC50: 0.38 µg/mL
[29]
  IC80 (µg/ml), TZM-bl pseudovirus neutralization: 11.8 µg/mL
[30]
  neutralization IC50: 1.97 µg/mL
[31]
  IC80 neutralization: 9.31 µg/mL
[32]
  neutralization IC50: 5.63 µg/mL
[33]
  IC80 neutralization: 2.56 µg/mL
[34]
  IC50 (µg/ml), TZM-bl cell neutralization assay, pseudovirus: 0.084 µg/mL
[35]
  neutralization IC50: 0.248 µg/mL
[36]
  IC80 neutralization: 17.1 µg/mL
[37]
  neutralization IC50: 0.688 µg/mL
[38]
  IC50 (µg/ml), TZM-bl cell neutralization assay, pseudovirus: 0.099 µg/mL
[39]
  IC80 neutralization: 0.927 µg/mL
[40]
  neutralization IC50: 7.12 µg/mL
[41]
  neutralization IC50: 0.666 µg/mL
[42]
  neutralization IC50: 2.06 µg/mL
[43]
  IC80 neutralization: 3.08 µg/mL

## PGZL1 (antibody)
full-length MPER peptide
  EC50 (read off the curve): 0.02 µg/mL
4E10-specific peptide
  EC50 (read off the curve): 0.02 µg/mL
[2]
  IC80 neutralization: 15.1 µg/mL
[3]
  IC80 neutralization: > 50 µg/mL
[4]
  IC50 (µg/ml), TZM-bl cell neutralization assay, pseudovirus: 2.4 µg/mL
[7]
  IC80 neutralization: > 50 µg/mL
[8]
  neutralization IC50: > 50 µg/mL
[9]
  neutralization IC50: 13.9 µg/mL
[11]
  IC80 neutralization: 5.19 µg/mL
[12]
  IC50 (µg/ml), TZM-bl cell neutralization assay, pseudovirus: 13.9 µg/mL
[13]
  IC80 neutralization: 48.2 µg/mL
[17]
  neutralization IC50: 3.97 µg/mL
[18]
  IC80 neutralization: > 50 µg/mL
[19]
  IC80 neutralization: > 50 µg/mL
[20]
  neutralization IC50: > 50 µg/mL
[21]
  IC80 neutralization: > 50 µg/mL
[23]
  IC80 neutralization: 20.2 µg/mL
[25]
  IC80 neutralization: 20.9 µg/mL
[27]
  IC80 neutralization: 6.62 µg/mL
[28]
  neutralization IC50: 6 µg/mL
[29]
  IC80 (µg/ml), TZM-bl pseudovirus neutralization: > 50 µg/mL
[30]
  neutralization IC50: 12.8 µg/mL
[31]
  IC80 neutralization: > 50 µg/mL
[32]
  neutralization IC50: > 50 µg/mL
[33]
  IC80 neutralization: > 50 µg/mL
[34]
  IC50 (µg/ml), TZM-bl cell neutralization assay, pseudovirus: 8.29 µg/mL
[35]
  neutralization IC50: 1.54 µg/mL
[36]
  IC80 neutralization: > 50 µg/mL
[37]
  neutralization IC50: 3.72 µg/mL
[38]
  IC50 (µg/ml), TZM-bl cell neutralization assay, pseudovirus: 1.39 µg/mL
[39]
  IC80 neutralization: 8.18 µg/mL
[40]
  neutralization IC50: > 50 µg/mL
[41]
  neutralization IC50: 4.64 µg/mL
[42]
  neutralization IC50: 13.3 µg/mL
[43]
  IC80 neutralization: 11.8 µg/mL

## VRC01 (antibody)
[1]
  Fold increase in IC50 relative to wild-type COT6: 1.2 fold
[2]
  IC80 neutralization: 0.228 µg/mL
[3]
  IC80 neutralization: 0.188 µg/mL
[4]
  IC50 (µg/ml), TZM-bl cell neutralization assay, pseudovirus: 0.058 µg/mL
[7]
  IC80 neutralization: 0.535 µg/mL
[8]
  neutralization IC50: 0.141 µg/mL
[9]
  neutralization IC50: > 50 µg/mL
[10]
  Fold increase in IC50 (wild-type COT6, the reference): 1 fold
[11]
  IC80 neutralization: 0.193 µg/mL
[12]
  IC50 (µg/ml), TZM-bl cell neutralization assay, pseudovirus: 0.051 µg/mL
[13]
  IC80 neutralization: 0.945 µg/mL
[44]
  Fold change (IC50 wash)/(IC50 no wash): 1.5 fold
  IC50 (µg/ml), no wash: 0.11 µg/mL
  IC50 (µg/ml), wash: 0.16 µg/mL
[14]
  neutralization IC50: 0.236 µg/mL
[17]
  neutralization IC50: 0.565 µg/mL
[18]
  IC80 neutralization: 0.197 µg/mL
[19]
  IC80 neutralization: 6.57 µg/mL
[20]
  neutralization IC50: 0.01 µg/mL
[21]
  IC80 neutralization: 0.148 µg/mL
[23]
  IC80 neutralization: 3.62 µg/mL
[24]
  Fold increase in IC50 relative to wild-type COT6: 1 fold
[25]
  IC80 neutralization: 0.573 µg/mL
[27]
  IC80 neutralization: 0.084 µg/mL
[28]
  neutralization IC50: 0.042 µg/mL
[29]
  IC80 (µg/ml), TZM-bl pseudovirus neutralization: 0.149 µg/mL
[30]
  neutralization IC50: 0.262 µg/mL
[31]
  IC80 neutralization: 0.776 µg/mL
[32]
  neutralization IC50: > 50 µg/mL
[33]
  IC80 neutralization: 1.46 µg/mL
[34]
  IC50 (µg/ml), TZM-bl cell neutralization assay, pseudovirus: 0.04 µg/mL
[35]
  neutralization IC50: 0.021 µg/mL
[36]
  IC80 neutralization: 0.037 µg/mL
[37]
  neutralization IC50: 0.372 µg/mL
[38]
  IC50 (µg/ml), TZM-bl cell neutralization assay, pseudovirus: 0.203 µg/mL
[39]
  IC80 neutralization: 0.505 µg/mL
[40]
  neutralization IC50: 0.114 µg/mL
[41]
  neutralization IC50: 0.867 µg/mL
[42]
  neutralization IC50: 0.081 µg/mL
[43]
  IC80 neutralization: 0.912 µg/mL
